The target in experiment [1] is T1, Recombinant human NPRB extracellular domain - human IgG1 Fc fusion (NPRB-Fc) (human, UniProt P20594 23-458).
T1 construct: extracellular domain; Used at 50 nM in the fluorescence polarization assay; R1-T433 counts on the mature protein; also called natriuretic peptide receptor B; not shown: Human IgG1 heavy chain, amino acids E216-G446 (IMGT.org, EU numbering), Accn; P01857.2
T1 sequence (looked up): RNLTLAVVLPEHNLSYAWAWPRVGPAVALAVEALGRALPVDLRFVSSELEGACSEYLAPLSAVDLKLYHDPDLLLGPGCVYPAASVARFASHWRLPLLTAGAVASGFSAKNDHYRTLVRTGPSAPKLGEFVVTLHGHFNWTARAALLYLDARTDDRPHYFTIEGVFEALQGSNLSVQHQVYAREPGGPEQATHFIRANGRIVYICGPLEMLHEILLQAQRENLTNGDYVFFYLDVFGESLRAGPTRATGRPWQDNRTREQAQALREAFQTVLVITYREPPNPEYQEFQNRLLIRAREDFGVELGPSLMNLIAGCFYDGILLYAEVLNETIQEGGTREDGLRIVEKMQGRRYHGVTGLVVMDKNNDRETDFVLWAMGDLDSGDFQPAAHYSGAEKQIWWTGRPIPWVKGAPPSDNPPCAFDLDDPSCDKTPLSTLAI
The experiment in a line: Fluorescence polarization, 5 nM CNP-F* with 50 nM human NPRB. How it is done: In the presence of [SEQ ID.
Next, 1-L volume of SEQ ID. […] The plate was incubated at room temperature for 10 min. Fluorescence polarization was then measured on Flexstation 3 (excitation wavelength: 480 nm; emission wavelength: 525 nm and cutoff at 515 nm).
A general note: Polarisation of emitted light reports the rotation of a fluorescent probe.

For experiment [2], the target named is T2, Recombinant human NPRA extracellular domain - human IgG1 Fc fusion (NPRA-Fc) (human, UniProt P16066 33-473).
T2 construct: extracellular domain; Expressed in Expi293 cells, Protein A purified; N1-L439 and C232 count on the mature NPRA, not on the precursor; also called Natriuretic Peptide Receptor A; not shown: Human IgG1 heavy chain, amino acids E216-G446 (IMGT.org, EU numbering), Accn; P01857.2
T2 sequence (looked up): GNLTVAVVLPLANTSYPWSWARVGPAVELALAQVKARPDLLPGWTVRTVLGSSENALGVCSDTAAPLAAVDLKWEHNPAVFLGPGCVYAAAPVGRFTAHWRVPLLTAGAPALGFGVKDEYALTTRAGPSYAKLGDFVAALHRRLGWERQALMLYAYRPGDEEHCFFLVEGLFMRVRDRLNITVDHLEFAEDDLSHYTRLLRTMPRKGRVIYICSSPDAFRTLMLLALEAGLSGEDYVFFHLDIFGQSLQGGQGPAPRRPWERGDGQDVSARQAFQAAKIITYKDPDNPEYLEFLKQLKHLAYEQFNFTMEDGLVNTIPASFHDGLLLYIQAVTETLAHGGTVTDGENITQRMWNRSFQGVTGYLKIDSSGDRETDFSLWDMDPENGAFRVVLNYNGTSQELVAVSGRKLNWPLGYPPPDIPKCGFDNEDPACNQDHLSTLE
The experiment in a line: Fluorescence polarization, 5 nM CNP-F* probe with recombinant human NPRA-Fc.

Bridge positions count the residues as written; N and C are the ends. Ends that are not written are not given here.

B1: CNP-F* probe (C-type natriuretic peptide bound to 5(6)-Carboxyfluorescein) (peptide)
peptide: {5(6)‑carboxyfluorescein}-GLSKGCFGLKLDRIGSMSGLGC
modifications: disulfide 6-22 (inferred)
notes: Made by solid phase synthesis; used at 5 nM in the fluorescence polarization assay; also called CNP probe; CNP based probe
As for B1, the values for the binding result in experiment [1] and in experiment [2] were “binds” and “no binding”, respectively.

The values are drawn from patent US20240325544A1, “CATIONIC LIPID FOR COVALENT MODIFICATION OF PEPTIDES” (PharmalN Corporation, priority 2023, published 2024).
